# Test results as given in article doi:10.1101/2025.02.09.637349 (bioRxiv, 2025).
# B1: Thermochromatium tepidum form-IAq RuBisCO large subunit (RbcL) (natural protein, UniProt A0A6I6DX30 1-472, looked up)
# chain: MAKTYSAGVKEYRETYWMPNYTPKDTDILACFKITPQPGVPREEAAAAVAAESSTGTWTTVWTDLLTDLDYYKGRAYAIEDVPGDDTCFYAFIAYPIDLFEEGSVVNVFTSLVGNVFGFKAVRALRLEDVRFPIAYVMTCNGPPHGIQVERDILNKYGRPLLGCTIKPKLGLSAKNYGRAVYECLRGGLDFTKDDENVNSQPFMRWRQRFDFVMEAIDKAERETGERKGHYLNVTAPTPEEMYKRAEYAKEIGAPIIMHDYITGGFCANTGLAQWCRNNGVLLHIHRAMHAVLDRNPHHGIHFRVLTKILRLSGGDHLHTGTVVGKLEGDRQATLGWIDLLRESYVKEDRSRGIFFDQDWGAMPGAFAVASGGIHVWHMPALVTIFGDDSVLQFGGGTLGHPWGNAAGACANRVALEACIEARNQGIPIEKEGKEVLTKAAAHSPELKIAMETWKEIKFEFDSVDKLDVAHK
# Target: the molecule itself
# Experiment: cryo-EM structure
protein,measurement,value
B1,stoichiometry N,8
